Measured values as given in US20240228596A1 (VIB VZW, published 2024).
Substitutions are numbered along the chain they refer to.

Experiments:
[1] = target: SARS-COV-2 Wuhan WT Spike_del18 on VSV-delG pseudotyped particles (SARS-COV-2, UniProt P0DTC2 14-1255); assay: cell-based or functional assay
[2] = target: T1, SARS-COV-2 RBD displayed on the surface of Saccharomyces cerevisiae cells (SARS-COV-2, UniProt P0DTC2 331-531); assay: yeast cell ELISA (FIG. 27)
[3] = target: monomeric human Fc-fused SARS-COV-2_RBD-SD1 (SARS-COV-2, UniProt P0DTC2 319-591)
[4] = target: T1, SARS-COV-2 RBD displayed on the surface …; assay: flow cytometry, yeast-displayed RBD

B1: VHH72_h1_S56A (VHH)
VHH: EVQLVESGGGLVQPGGSLRLSCAASGRTFSEYAMGWFRQAPGKEREFVATISWSGGATYYTDSVKGRFTISRDNAKNTVYLQMNSLRPEDTAVYYCAAAGLGTVVSEWDYDYDYWGQGTLVTVSS
[1]
  IC50 Mean VSV-dG-spike SARS-COV-2: 1.14 µg/mL

B2: KiH19 = VHH117/VHH83-10GS-KiH (bispecific antibody, V domains shown)
V domain 1: DVQLQESGGGLVQPGGSLRLSCAASGKAVSISDMGWYRQPPGKQRELVATITKTGSTNYADSAQGRFTISRDNTKSAVYLEMKSLKPEDTAVYYCNAWLPYGMGPDYYGMELWGKGTQVTVSS
V domain 2: DVQLQESGGGLVQPGDSLRLSCVLSGGVFTSYAMGWFRQAPGKEREFLAAITFNSDATYYADSVKGRFTISRDNAKNTAYLQMNSLKPEDTAVYSCAAGGNHYNPQYYHDYDKYDHWGQGTQVTVSS
[2]
  binding result: binds

B3: VHH3.117 (VHH)
VHH: B2 V domain 1 with D1Q
[3]
  Kd: 0.445 nM

B4: VHH3.89 (VHH)
VHH: QVQLQESGGGLVQPGGSLRLSCAASGFTLDYYAIGWFREVPGKEREGLSRIDSSDGSTYYADSVKGRFTISRDNTKNIVYLQMNNLKPEDTAVYYCATDPIIQGRNWYWTGWGQGTQVTVSS
[4]
  binding result: binds
